In publication PMC11880808:
pKd: −log10 of the molar value.

Columns and labels:
[1] = target: cynomolgus monkey IL-2 receptor alpha (IL-2Rα) (cynomolgus monkey); assay: BLI; Octet; who was immobilised, temperature and buffer are not told
[2] = target: cynomolgus monkey IL-2 receptor beta and gamma (IL-2Rβγ) complex (cynomolgus monkey) (UniProt Q38J85); assay: as above

recombinant human IL-2 (from UniProt P60568 21-153) (ligand)
pKd [1]: 7.70 | pKd [2]: 8.89
